For one test, the target named is T1, MSN (human, UniProt P26038).
T1 construct: expressed in transfected HEK293 cells
In words: cell array, transfected fixed HEK293 cells.

In another test the target is T2, TGM2 (human, UniProt P21980).
T2 construct: expressed in transfected HEK293 cells
T2 sequence (looked up): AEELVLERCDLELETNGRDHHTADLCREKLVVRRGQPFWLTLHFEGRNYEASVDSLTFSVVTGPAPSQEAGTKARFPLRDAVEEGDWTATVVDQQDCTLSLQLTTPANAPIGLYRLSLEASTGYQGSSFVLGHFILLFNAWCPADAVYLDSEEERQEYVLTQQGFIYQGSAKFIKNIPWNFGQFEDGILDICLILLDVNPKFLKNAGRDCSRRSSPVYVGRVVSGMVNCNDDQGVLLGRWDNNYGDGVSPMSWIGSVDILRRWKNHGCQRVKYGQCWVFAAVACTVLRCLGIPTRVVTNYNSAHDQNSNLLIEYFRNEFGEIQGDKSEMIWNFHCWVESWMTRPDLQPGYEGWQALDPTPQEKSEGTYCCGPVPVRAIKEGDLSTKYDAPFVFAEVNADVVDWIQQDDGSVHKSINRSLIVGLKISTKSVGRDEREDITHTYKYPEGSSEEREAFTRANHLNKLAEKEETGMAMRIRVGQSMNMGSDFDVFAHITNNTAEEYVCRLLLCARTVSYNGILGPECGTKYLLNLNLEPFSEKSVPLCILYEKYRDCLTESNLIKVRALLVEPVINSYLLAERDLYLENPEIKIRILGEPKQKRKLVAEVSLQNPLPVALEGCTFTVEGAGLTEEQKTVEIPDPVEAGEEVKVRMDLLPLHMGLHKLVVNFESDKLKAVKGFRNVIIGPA
In words: cell array, transfected fixed HEK293 cells.

For another test, the target named is T3, hEpCAM-Fc (human, UniProt P16422).
T3 construct: Fc fusion; member of the panel m9
T3 sequence (looked up): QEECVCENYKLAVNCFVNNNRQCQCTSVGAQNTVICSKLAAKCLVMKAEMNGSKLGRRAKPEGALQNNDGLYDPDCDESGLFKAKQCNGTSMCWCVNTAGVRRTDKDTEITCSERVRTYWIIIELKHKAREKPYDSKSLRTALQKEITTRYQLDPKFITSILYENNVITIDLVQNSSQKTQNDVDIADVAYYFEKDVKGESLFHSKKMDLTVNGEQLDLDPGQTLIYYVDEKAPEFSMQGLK
Put plainly: direct ELISA on coated protein, IgG1. (In general: In an ELISA, binding on a coated surface is turned into a signal by an enzyme label.)

For the next test, the target named is T4, hTWEAK-Fc (human, UniProt O43508).
T4 construct: Fc fusion; member of the panel m9
T4 sequence (looked up): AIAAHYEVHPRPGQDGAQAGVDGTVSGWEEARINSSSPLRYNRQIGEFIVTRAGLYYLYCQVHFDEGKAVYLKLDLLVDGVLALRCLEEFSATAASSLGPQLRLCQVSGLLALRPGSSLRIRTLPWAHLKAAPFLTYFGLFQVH
Put plainly: direct ELISA on coated protein, IgG1.

Another test concerns the target T5, hOX40-Fc.
T5 construct: member of the panel m9
T5 chain: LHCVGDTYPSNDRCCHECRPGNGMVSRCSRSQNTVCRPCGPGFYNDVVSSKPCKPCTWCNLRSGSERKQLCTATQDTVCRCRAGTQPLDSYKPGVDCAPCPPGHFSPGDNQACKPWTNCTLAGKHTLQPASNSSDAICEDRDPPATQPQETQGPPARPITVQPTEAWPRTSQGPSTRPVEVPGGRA
Put plainly: direct ELISA on coated protein, IgG1.

In another test the target is T6, hDR6-Fc (human, UniProt O75509).
T6 construct: Fc fusion; member of the panel m9
T6 sequence (looked up): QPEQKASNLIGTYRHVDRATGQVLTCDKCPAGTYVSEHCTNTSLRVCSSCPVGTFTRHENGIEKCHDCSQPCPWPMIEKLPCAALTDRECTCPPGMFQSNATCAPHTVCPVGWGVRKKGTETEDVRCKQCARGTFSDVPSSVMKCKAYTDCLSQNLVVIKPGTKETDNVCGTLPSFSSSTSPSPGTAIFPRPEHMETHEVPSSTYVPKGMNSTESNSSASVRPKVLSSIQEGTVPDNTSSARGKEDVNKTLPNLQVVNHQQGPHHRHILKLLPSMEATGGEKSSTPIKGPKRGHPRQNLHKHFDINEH
Put plainly: direct ELISA on coated protein, IgG1.

The next test concerns the target T7, hCD4 (human, UniProt P01730).
T7 construct: purified recombinant protein; member of the panel m9
Put plainly: direct ELISA on coated protein, IgG1.

The target in a further test is T8, hVCAM-Fc.
T8 construct: member of the panel m9
T8 chain: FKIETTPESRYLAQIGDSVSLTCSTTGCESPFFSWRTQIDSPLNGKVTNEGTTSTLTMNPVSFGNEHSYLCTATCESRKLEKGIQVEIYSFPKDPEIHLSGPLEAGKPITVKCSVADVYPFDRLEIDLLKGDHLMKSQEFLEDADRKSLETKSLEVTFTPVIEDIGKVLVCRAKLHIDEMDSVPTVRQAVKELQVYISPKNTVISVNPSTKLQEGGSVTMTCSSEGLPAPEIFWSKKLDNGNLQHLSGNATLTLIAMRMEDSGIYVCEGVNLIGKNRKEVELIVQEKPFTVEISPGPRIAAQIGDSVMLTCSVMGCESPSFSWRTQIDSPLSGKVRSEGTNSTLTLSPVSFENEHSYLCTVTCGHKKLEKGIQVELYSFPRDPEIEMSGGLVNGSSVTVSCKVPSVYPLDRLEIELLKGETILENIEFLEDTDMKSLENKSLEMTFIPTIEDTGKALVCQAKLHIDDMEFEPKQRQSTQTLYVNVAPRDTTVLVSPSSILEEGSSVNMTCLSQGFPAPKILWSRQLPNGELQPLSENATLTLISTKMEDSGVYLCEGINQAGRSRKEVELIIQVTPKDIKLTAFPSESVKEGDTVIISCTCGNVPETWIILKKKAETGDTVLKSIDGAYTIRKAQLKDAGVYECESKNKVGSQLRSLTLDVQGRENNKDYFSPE
Put plainly: direct ELISA on coated protein, IgG1.

Another test deals with T9, hLTBR-Fc (human, UniProt P36941).
T9 construct: Fc fusion; member of the panel m9
In words: direct ELISA on coated protein, IgG1.

Another test addresses T10, hBAFFR-Fc (human, UniProt Q96RJ3).
T10 construct: Fc fusion; member of the panel m9
In words: direct ELISA on coated protein, IgG1.

Test [1] addresses T11, cynomolgus monkey C-KIT-Fc (cynomolgus monkey).
T11 construct: also called cyno C-KIT-Fc
Put plainly: direct titration ELISA on coated C-KIT-Fc, IgG1 format.
Experimental: Direct titration ELISA for second-generation designer IgGs binding to human and cyno C-KIT-Fc proteins.
To coat Greiner Bio-One High bind ELISA plates, target proteins were diluted to 1 μg/ml in carbonate buffer and added at 100 μl per well, at 4° C., o/n. Coated plates were washed 3× with PBS pH7.4, blocked with 1% BSA in PBS (380 μl/well) for 1 hr at RT, then washed 3× with PBS-Tween 20 (PBST). C-KIT antibodies (100 μl/well; diluted in PBST) were then added and then incubated 1 hr at RT. Plates were then washed 3× with PBST and goat anti-human kappa chain-HRP added (100 μl/well) at RT, for 1 hr. Plates were then washed 3× with PBST and twice with PBS before the addition of 100 μl TMB per well. Reactions were stopped by adding 100 μl 2M H₂SO₄/well and OD was read on a plate reader at 450 nm.

T1 sequence (P26038 2-577 limits assumed): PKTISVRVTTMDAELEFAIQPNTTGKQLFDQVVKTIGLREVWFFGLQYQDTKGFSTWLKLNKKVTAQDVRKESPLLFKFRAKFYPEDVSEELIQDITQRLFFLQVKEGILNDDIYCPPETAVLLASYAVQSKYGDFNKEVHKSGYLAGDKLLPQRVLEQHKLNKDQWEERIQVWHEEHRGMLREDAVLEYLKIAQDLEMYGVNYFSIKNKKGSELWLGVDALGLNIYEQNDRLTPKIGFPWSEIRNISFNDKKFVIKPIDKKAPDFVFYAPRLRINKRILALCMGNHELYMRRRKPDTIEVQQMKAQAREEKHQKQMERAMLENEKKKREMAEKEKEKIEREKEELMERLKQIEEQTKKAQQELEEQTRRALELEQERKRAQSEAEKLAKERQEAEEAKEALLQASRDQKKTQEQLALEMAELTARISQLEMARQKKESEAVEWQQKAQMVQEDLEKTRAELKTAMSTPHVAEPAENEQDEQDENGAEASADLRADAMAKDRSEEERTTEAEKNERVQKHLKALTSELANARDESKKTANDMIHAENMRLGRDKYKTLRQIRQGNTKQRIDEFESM
T9 sequence (P36941 28-227 limits assumed): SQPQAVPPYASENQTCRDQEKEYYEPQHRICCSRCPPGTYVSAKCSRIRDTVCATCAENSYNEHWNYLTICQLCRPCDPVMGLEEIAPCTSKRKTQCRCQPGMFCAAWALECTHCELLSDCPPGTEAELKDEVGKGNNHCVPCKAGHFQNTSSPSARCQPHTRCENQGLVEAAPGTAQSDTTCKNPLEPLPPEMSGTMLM
T10 sequence (Q96RJ3 7-71 limits assumed): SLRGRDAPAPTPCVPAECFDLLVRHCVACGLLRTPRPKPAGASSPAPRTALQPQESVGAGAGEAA
Experimental for MSN: (§1) Transfection of all plasmids was confirmed by screening for the co-encoded marker ZS green (FIG. 13A).
(§2) Primary hits (duplicate spots) were identified by analysing fluorescence (AF647 and ZsGreenl) on ImageQuant. Vectors encoding all hits were sequenced to confirm their correct identities. […] Slides were analysed as above.
Experimental for TGM2: as §1, §2

B1: humanized h37M, human IgG1 (antibody, V domains shown)
VH: QVQLVQSGAEVKKPGASVKLSCKASGYTFTDYYINWVRQAPGKGLEWIARIYPGSGNTYYNEKFKGRATLTADKSTSTAYMQLSSLRSEDTAVYFCARGVYYFDYWGQGTTVTVSS
VL: DIVMTQSPSSLSASVGDRVTITCKASQNVRTNVAWYQQKPGKAPKALIYSASYRYSGVPDRFTGSGSGTDFTLTISSLQPEDFADYFCQQYNSYPRTFGGGTKVEIK
notes: human IgG1; terbium-labelled as the tracer of the HTRF assays; also called C-KIT-h37M; h37M-IgG1
For B1, the binding result with MSN is on record as “no binding (tested: 2 µg/ml)”; in the test with TGM2, “no binding (tested: 2 µg/ml)”; with hEpCAM-Fc it was “no binding (tested: 1 µg/ml)”; with hTWEAK-Fc, “no binding (tested: 1 µg/ml)”; with hOX40-Fc, “no binding (tested: 1 µg/ml)”; with hDR6-Fc, “no binding (tested: 1 µg/ml)”. For the same molecule, the binding result in the test with hCD4, with hVCAM-Fc, with hLTBR-Fc and with hBAFFR-Fc was “no binding (tested: 1 µg/ml)” each time.

B2: MH5, human IgG1 (antibody, V domains shown)
VH: QVQLVQSGAEVKKPGASVKVSCKASGYTFTDYYMNWVRQAPGQGLEWMGRIYPGSGNTYYAQKFQGRVTMTRDTSTSTVYMELSSLRSEDTAVYYCARGVYYYDYWGQGTLVTVSS
VL: DIQMTQSPSSLSASVGDRVTITCRASQGIRTNLAWFQQKPGKAPKSLIYSASSLQSGVPSRFSGSGSGTDFTLTISSLQPEDFATYYCQQYANYPRTFGGGTKVEIK
notes: IgG1; also called C-KIT-MH5; C-KIT-MHS
On to B2, for which the EC50 (read off the curve) (commonly the concentration that produces a half-maximal response) in test [1] was about 0.1 µg/mL.

These data come from patent US20200283521A1 (GRANULAR THERAPEUTICS, published 2020).
